The target in experiment [1] is murine 72A1 (m72A1), anti-EBV gp350 neutralizing antibody from hybridoma HB168. As to the kind of experiment: ELISA, mAb 10 µg/ml captured on soluble gp350, HRP secondary 1:2,000.
Experiment [2] deals with humanized 72A1 (h72A1). The experiment is described as above.
The target in experiment [3] is EBV gp350 on EBV-eGFP virions (Epstein-Barr virus) (UniProt P03200). In words: cell-based or functional assay.
In experiment [4] the target is T1, EBV gp350 expressed on the surface of stably transfected CHO cells (Epstein-Barr virus, UniProt P03200 1-907).
T1 construct: also called native gp350; gp350 expressing CHO cells
T1 sequence: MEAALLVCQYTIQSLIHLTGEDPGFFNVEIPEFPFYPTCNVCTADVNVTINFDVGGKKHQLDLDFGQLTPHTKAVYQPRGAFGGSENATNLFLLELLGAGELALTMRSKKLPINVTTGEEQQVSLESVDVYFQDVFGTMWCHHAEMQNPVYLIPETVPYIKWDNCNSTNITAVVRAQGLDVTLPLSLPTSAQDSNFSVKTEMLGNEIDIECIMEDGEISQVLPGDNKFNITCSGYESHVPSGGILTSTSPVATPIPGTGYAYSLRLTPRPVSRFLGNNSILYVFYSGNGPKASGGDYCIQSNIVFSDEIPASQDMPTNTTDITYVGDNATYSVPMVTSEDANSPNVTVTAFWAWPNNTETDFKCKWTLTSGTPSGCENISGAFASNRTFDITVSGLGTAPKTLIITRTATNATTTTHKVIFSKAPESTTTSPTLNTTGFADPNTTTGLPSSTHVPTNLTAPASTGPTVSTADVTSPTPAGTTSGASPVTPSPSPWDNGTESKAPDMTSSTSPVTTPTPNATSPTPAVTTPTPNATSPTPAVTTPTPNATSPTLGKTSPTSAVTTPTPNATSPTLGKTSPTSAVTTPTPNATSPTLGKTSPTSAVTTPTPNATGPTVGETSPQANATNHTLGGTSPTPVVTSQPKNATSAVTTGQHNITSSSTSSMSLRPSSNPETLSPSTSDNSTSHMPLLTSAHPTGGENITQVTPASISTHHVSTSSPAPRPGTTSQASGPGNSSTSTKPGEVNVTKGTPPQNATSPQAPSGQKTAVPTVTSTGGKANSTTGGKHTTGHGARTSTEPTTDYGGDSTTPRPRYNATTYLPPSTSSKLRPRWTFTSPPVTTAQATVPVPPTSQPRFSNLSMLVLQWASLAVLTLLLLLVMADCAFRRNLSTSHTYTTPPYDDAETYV
In words: cell competition (flow), unlabeled 500 µg/ml; competitor: biotinylated m72A1 1 µg/ml.

The target in experiment [5] is T1, EBV gp350 expressed on the surface of …. As to the kind of experiment: cross-competition on gp350-CHO cells (flow), unlabeled 500 µg/ml; competitor: biotinylated HB20.
Experiment [6] has the same target. As to the kind of experiment: cross-competition on gp350-CHO cells (flow), unlabeled 500 µg/ml; competitor: biotinylated HB17.
For experiment [7] the target is unchanged. As to the kind of experiment: cell competition (flow), unlabeled 250 µg/ml; competitor: biotinylated m72A1 1 µg/ml.
For experiment [8] the target is unchanged. In words: cross-competition on gp350-CHO cells (flow), unlabeled 500 µg/ml; competitor: biotinylated m72A1.
For experiment [9] the target is unchanged. As to the kind of experiment: cross-competition on gp350-CHO cells (flow), unlabeled 500 µg/ml; competitor: biotinylated HB5.
Experiment [10] addresses T2, EBV gp350 on EBV-eGFP virions (Epstein-Barr virus, UniProt P03200 1-907).
T2 sequence: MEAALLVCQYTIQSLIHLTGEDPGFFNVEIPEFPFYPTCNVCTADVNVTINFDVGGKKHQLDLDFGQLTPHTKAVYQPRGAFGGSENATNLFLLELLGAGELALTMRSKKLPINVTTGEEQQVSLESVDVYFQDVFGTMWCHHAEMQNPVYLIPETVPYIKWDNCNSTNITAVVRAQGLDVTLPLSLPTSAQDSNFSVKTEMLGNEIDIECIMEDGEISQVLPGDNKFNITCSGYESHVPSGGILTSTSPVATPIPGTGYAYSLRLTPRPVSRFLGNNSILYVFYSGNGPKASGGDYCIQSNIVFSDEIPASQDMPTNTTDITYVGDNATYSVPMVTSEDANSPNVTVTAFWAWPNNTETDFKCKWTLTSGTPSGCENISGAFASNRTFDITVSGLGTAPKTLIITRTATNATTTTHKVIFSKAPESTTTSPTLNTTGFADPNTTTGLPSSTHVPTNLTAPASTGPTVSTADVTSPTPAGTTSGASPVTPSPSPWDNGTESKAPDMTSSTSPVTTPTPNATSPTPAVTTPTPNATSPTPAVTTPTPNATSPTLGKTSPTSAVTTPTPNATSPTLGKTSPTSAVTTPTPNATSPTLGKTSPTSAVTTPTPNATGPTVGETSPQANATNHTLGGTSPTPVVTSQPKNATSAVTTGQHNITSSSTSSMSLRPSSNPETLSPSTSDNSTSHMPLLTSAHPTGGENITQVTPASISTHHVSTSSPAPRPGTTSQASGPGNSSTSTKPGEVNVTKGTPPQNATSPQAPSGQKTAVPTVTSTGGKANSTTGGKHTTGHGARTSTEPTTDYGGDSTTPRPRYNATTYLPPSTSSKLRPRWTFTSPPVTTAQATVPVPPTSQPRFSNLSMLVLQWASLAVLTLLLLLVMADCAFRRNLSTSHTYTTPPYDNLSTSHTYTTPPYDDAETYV
As to the kind of experiment: cell-based or functional assay.

Experiment [11] concerns the target T1, EBV gp350 expressed on the surface of …. In words: cell competition (flow), unlabeled 67.5 µg/ml; competitor: biotinylated m72A1 1 µg/ml.
The target is the same in experiment [12]. In words: cross-competition on gp350-CHO cells (flow), unlabeled 500 µg/ml; competitor: biotinylated 54A1.
Experiment [13] shares this target. In words: cell competition (flow), unlabeled 125 µg/ml; competitor: biotinylated m72A1 1 µg/ml.
Experiment [14] shares this target. As to the kind of experiment: cross-competition on gp350-CHO cells (flow), unlabeled 500 µg/ml; competitor: biotinylated h72A1.
Experiment [15] shares this target. In words: cross-competition on gp350-CHO cells (flow), unlabeled 500 µg/ml; competitor: biotinylated HB11.
For experiment [16] the target is unchanged. As to the kind of experiment: cross-competition on gp350-CHO cells (flow), unlabeled 500 µg/ml; competitor: biotinylated HB1.

murine 72A1 (m72A1), anti-EBV gp350 neutralizing antibody from hybridoma HB168, sequence (VH, as listed by the source limits assumed, chain 1 of 2): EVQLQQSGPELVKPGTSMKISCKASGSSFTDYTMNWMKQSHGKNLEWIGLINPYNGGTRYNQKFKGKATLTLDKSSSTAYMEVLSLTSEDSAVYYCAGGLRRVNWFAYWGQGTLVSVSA
murine 72A1 (m72A1), anti-EBV gp350 neutralizing antibody from hybridoma HB168, sequence (VL, as listed by the source limits assumed, chain 2 of 2): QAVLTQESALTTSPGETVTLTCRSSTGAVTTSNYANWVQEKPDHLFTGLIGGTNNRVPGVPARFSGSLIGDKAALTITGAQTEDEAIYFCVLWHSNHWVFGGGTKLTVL
humanized 72A1 (h72A1), sequence (VH, as listed by the source limits assumed, chain 1 of 2): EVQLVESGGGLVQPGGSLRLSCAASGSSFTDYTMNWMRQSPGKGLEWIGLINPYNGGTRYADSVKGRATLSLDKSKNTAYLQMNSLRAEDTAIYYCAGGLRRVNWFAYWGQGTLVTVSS
humanized 72A1 (h72A1), sequence (VL, as listed by the source limits assumed, chain 2 of 2): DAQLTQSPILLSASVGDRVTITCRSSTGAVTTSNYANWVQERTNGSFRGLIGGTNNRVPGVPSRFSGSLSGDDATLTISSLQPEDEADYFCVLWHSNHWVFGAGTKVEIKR

Consider “HRP-conjugated goat anti-mouse IgG (antibody)”, for which, in [1], the fold ELISA signal above the background (1× PBS) was determined as 28 fold and the fold ELISA signal as compared to goat anti-human IgG was found to be 9 fold.

In [2], “HRP-conjugated goat anti-human IgG (antibody)” showed a fold ELISA signal over the background of 2100 fold.

Take “murine 72A1 (m72A1), anti-EBV gp350 neutralizing antibody from hybridoma HB168”: in experiment [3], the % blocking of EBV-eGFP infection of Raji cells at 12.5 µg/ml came to 93% and the % neutralization of EBV-eGFP infection of Raji cells, 12.5-100 µg/ml lay in the range of 35 to 80%.

B1: HB20 (antibody, V domains shown)
VH: ELVKPGASVKLSCKASGYTFTSYWIQWVKQRPGQGLEWIGEINPTNGHTNYNEKFKTKATLTVDKSSSTAYMRLSSLTSEDSAVYYCARNLYYYGRPDYWGQGTSVTVSS
VL: SSLSASLGDRVTISCRASQDIGNYLNWYQQKPDGTVKLLIYYTSRLHSGVPSRFSGSGSGTDYSLTISNLEQEDIATYFCQQGNALPPTFGGGTKLEIKR
Regarding B1, the “% inhibition of biotinylated nAbs” value worked out at 96% in [4]; 59% in [5]; 13% in experiment [6]; 91% in experiment [7]; 98% in [8]; 97% in [9]. In addition, the “% inhibition of biotinylated nAbs” value in [11] amounted to 89%; in experiment [12] it was 0%; in experiment [13], 87%; in experiment [14], 96%; in [15], 89%; in experiment [16] it was 88%. The “% neutralization of EBV-eGFP infection of Raji cells at 100 µg/ml” value in experiment [10] came out at 90%.

These data come from US20210115113A1 (CITY OF HOPE, published 2021).
